From US20100267626

Target: T1, GST-Axin1 (a.a. 1-280), O35625
T1 chain: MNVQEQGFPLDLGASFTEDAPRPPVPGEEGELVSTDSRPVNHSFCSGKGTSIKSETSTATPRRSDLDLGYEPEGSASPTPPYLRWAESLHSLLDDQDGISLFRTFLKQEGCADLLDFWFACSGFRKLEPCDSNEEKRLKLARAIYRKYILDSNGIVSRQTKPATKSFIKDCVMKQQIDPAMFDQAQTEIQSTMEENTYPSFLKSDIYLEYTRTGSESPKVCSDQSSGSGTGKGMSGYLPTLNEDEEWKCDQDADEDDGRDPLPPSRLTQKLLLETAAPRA

B1: Recombinant TNKS2 (in vitro PARsylation assay) (protein)
chain: MSGRRCAGGGAACASAAAEAVEPAARELFEACRNGDVERVKRLVTPEKVNSRDTAGRKSTPLHFAAGFGRKDVVEYLLQNGANVQARDDGGLIPLHNACSFGHAEVVNLLLRHGADPNARDNWNYTPLHEAAIKGKIDVCIVLLQHGAEPTIRNTDGRTALDLADPSAKAVLTGEYKKDELLESARSGNEEKMMALLTPLNVNCHASDGRKSTPLHLAAGYNRVKIVQLLLQHGADVHAKDKGDLVPLHNACSYGHYEVTELLVKHGACVNAMDLWQFTPLHEAASKNRVEVCSLLLSYGADPTLLNCHNKSAIDLAPTPQLKERLAYEFKGHSLLQAAREADVTRIKKHLSLEMVNFKHPQTHETALHCAAASPYPKRKQICELLLRKGANINEKTKEFLTPLHVASEKAHNDVVEVVVKHEAKVNALDNLGQTSLHRAAYCGHLQTCRLLLSYGCDPNIISLQGFTALQMGNENVQQLLQEGISLGNSEADRQLLEAAKAGDVETVKKLCTVQSVNCRDIEGRQSTPLHFAAGYNRVSVVEYLLQHGADVHAKDKGGLVPLHNACSYGHYEVAELLVKHGAVVNVADLWKFTPLHEAAAKGKYEICKLLLQHGADPTKKNRDGNTPLDLVKDGDTDIQDLLRGDAALLDAAKKGCLARVKKLSSPDNVNCRDTQGRHSTPLHLAAGYNNLEVAEYLLQHGADVNAQDKGGLIPLHNAASYGHVDVAALLIKYNACVNATDKWAFTPLHEAAQKGRTQLCALLLAHGADPTLKNQEGQTPLDLVSADDVSALLTAAMPPSALPSCYKPQVLNGVRSPGATADALSSGPSSPSSLSAASSLDNLSGSFSELSSVVSSSGTEGASSLEKKEVPGVDFSITQFVRNLGLEHLMDIFEREQITLDVLVEMGHKELKEIGINAYGHRHKLIKGVERLISGQQGLNPYLTLNTSGSGTILIDLSPDDKEFQSVEEEMQSTVREHRDGGHAGGIFNRYNILKIQKVCNKKLWERYTHRRKEVSEENHNHANERMLFHGSPFVNAIIHKGFDERHAYIGGMFGAGIYFAENSSKSNQYVYGIGGGTGCPVHKDRSCYICHRQLLFCRVTLGKSFLQFSAMKMAHSPPGHHSVTGRPSVNGLALAEYVIYRGEQAYPEYLITYQIMRPEGMVDG
  in vitro PARsylation with biotin-NAD+ (SDS-PAGE, streptavidin probe): TNKS2 was able to PARsylate an Axin1 fragment (a.a. 1-280) containing the TBD in vitro, which was completely inhibited by XAV939 treatment
